Laboratory results: patent publication US20240043504A1 (published 2024)
Residue numbers refer to the chain shown, from its start.

T1: MERS-CoV Spike Protein (ECD, aa 1-1297, His Tag) (Sino 40069-[change]) (MERS-CoV, UniProt K9N5Q8 18-1297)
T1 sequence: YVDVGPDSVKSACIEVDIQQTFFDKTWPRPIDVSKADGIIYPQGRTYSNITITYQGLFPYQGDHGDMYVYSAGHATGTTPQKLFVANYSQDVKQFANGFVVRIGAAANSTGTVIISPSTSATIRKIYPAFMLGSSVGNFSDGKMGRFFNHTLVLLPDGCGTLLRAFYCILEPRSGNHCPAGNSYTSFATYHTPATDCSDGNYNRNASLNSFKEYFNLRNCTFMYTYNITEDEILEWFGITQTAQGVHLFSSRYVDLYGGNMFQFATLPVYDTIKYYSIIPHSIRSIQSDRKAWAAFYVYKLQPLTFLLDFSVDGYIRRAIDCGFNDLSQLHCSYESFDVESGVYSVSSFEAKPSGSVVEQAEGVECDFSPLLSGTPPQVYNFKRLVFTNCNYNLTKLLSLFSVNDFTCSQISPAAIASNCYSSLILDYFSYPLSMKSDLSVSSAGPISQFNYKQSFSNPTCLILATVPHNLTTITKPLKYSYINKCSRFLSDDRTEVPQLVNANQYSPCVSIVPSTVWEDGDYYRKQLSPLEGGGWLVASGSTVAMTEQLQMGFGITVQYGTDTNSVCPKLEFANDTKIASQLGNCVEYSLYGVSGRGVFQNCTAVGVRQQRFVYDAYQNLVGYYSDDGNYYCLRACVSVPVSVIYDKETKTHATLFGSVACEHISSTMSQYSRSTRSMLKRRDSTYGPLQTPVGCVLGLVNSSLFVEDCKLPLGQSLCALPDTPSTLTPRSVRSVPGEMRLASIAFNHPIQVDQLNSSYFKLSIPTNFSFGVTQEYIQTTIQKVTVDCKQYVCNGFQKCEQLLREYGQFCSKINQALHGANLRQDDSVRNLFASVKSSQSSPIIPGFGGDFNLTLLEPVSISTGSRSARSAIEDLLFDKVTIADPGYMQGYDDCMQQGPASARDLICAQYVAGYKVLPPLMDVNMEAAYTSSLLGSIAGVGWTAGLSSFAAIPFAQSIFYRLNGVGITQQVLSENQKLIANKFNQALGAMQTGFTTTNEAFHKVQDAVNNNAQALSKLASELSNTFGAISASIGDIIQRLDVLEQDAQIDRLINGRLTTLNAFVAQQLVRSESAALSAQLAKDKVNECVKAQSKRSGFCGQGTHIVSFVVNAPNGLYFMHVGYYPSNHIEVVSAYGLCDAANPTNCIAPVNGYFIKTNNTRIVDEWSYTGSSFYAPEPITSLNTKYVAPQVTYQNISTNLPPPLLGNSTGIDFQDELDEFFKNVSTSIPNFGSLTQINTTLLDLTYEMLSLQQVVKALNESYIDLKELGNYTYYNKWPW

T2: MERS-CoV Spike Protein S2 (aa 726-1296, His Tag) (Sino 40070-[change]) (MERS-CoV, UniProt K9N5Q8 726-1296)
T2 sequence: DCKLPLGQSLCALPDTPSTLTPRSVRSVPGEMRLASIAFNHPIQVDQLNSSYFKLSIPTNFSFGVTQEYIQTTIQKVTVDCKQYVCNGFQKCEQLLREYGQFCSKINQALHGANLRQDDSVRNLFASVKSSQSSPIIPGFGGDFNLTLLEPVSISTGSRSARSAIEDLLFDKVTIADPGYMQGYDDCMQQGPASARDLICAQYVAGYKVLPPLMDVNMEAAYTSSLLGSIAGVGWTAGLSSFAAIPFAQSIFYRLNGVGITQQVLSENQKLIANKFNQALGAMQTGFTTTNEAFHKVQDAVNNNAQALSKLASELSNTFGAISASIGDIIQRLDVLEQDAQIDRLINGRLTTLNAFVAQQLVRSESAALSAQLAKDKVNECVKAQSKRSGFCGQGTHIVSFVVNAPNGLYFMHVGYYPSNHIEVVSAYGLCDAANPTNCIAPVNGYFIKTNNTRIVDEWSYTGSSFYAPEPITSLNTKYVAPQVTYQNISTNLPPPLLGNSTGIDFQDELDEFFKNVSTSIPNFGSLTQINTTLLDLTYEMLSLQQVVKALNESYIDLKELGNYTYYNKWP

T3: MERS-CoV (NCoV/Novel coronavirus) Spike Protein S1 Protein (aa 1-725, His Tag) (Sino 40069-V08B1) (MERS-CoV, UniProt K9N5Q8 18-725)
T3 sequence: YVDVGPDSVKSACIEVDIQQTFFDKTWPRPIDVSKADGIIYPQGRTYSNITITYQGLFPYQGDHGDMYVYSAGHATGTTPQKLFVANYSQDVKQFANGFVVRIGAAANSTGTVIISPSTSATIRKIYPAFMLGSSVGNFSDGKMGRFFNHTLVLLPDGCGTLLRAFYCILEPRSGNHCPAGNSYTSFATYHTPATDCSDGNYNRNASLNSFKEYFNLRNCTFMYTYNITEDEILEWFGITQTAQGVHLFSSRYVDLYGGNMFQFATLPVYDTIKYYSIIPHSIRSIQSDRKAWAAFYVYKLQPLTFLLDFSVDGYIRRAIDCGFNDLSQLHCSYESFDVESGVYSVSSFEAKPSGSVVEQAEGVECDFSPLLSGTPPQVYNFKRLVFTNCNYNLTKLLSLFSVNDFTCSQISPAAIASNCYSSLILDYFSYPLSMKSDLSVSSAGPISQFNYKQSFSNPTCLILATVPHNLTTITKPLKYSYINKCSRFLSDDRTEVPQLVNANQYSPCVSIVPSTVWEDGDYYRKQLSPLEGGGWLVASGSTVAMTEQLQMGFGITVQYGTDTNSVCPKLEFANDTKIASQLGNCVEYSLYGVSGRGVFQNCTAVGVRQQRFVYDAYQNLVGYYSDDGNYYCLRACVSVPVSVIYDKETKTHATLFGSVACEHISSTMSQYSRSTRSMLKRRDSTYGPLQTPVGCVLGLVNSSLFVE

T4: MERS-CoV (NCoV/Novel coronavirus) Spike Protein fragment (RBD, aa 367-606, His Tag) (Sino 40071-V08B1) (MERS-CoV, UniProt K9N5Q8 367-606)
T4 sequence: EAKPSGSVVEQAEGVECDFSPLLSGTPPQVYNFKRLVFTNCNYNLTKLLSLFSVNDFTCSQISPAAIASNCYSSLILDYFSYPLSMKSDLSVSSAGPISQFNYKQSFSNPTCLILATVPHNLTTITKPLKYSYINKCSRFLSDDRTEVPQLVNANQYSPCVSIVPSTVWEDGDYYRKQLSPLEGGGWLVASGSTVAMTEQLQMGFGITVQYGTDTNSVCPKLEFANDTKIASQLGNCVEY

B1: mAb10921 (antibody, V domains shown)
VH: EVQLVESGGGLVQPGGSLRLSCAASGITVSSNYMSWVRQAPGKGLEWVSVIYSGGSTFYADSVKGRFTISRHNSKNTLYLQMNSLRAEDTAVYYCARERNFDAFDIWGQGTMVTVSS
VL: DIQMTQSPSSVSASVGDRVTITCRASQGISSWLAWYQQKPGKAPKLLIYAASSLQSGVPSRFSGSGSGTDFTLTISSLQPEDFATYYCQQANSFPLFTFGPGTKVDIKR
B2: mAb10985 (antibody, V domains shown)
VH: EVQLVESGGGLVQPGRSLRLSCAASGFTFDDYAMHWVRQAPGKGLEWVSGISWNRGSIGYADSVKGRFTISRDNAKNSLYLQMSSLRAEDTALYYCAKDGERWDSVVVPSARNGMDVWGQGTTVTVSS
VL: QSVLTQPPSVSGAPGQRVTISCTGSSSNIGAGYDVHWYQQLPGTAPKLLIYGNSNRPSGVPDRFSGSKSGTSASLAITGLQAEDEADYYCQSYDSSLSGSYVFGTGTKVTVLG
B3: mAb10986 (antibody, V domains shown)
VH: EVQLVESGGGLVQPGGSLRLSCAASEFTVSSNYMSWVRQAPGKGLEWVSVIYSGGSTFYADSVKGRFTISRDNSKNTLYLQMNSLRAEDTAVYYCARALPYGDLHFDYWGQGTLVTVSS
VL: B2 VL with A31T, S54T, G99D
B4: mAb10934 (antibody, V domains shown)
VH: not shown
VL: DIQMTQSPSSLSASVGDRVTITCQASQDIWNYINWYQQKPGKAPKLLIYDASNLKTGVPSRFSGSGSGTDFTFTISSLQPEDIATYYCQQHDDLPPTFGQGTKVEIKR
B5: mAb10935 (antibody, V domains shown)
VH: EVQLVESGGGLVQPGGSLRLSCAASGFTVSSNYMSWVRQAPGKGLEWVSLIYSGGSTYYADSVKGRFTISRHNSKNTLYLQMNSLRSEDTAVYYCARVPLGDYYYGMDVWGQGTTVTVSS
VL: B4 VL with W30N, N31K, I33L, K55E, H91S, D93N, P96L, Q100G
B6: mAb10957 (antibody, V domains shown)
VH: EVQLVESGGGLVQPGGSLRLSCAASGVTVSSNYMSWVRQAPGKGLEWVSVIYSGGSTFYADSVKGRFTISRDNSKNTLFLQMNSLRIEDTAVYYCARDLGPYGMDVWGQGTTVTVSS
VL: B1 VL with M4L, S10F, V11L, W32Y, S53T, D70Q, T72I, A91L, F94Y, L96G
B7: mAb10915 (antibody, V domains shown)
VH: EVQLVESGGGLVQPGGSLRLSCAASGFTVSSNYMNWVRQAPGKGLEWVSVIYSGGSTFYADSVKGRFTISRHNSKNTLYLQMNSLRPEDTAVYYCARDLGGYFDYWGQGTLVTVSS
VL: not shown
B8: mAb10982 (antibody, V domains shown)
VH: EVQLVESGGGLVQPGGSLRLSCAASGLTVSSNYMSWVRQAPGKGLEWVSVIYSGGTTYYADSVKGRFTISRHNSKNTLSLQMNSLRAEDTAVYYCARGEGANYYGMDVWGQGTTVTVSS
VL: B2 VL with A31T, S100Y, Y101V, T105G, V109L
B9: mAb10956 (antibody, V domains shown)
VH: B6 VH with V27L, F79Y, I87A, G100I, P101K
VL: not shown
B10: mAb10955 (antibody, V domains shown)
VH: EVQLVESGGGLVQPGGSLRVSCAASGFTVSRNYMSWVRQAPGKGLEWVSVIYSGGSTFYADSVKGRFTISRDNSKNTLYLQMNSLRAEDTAIYYCARYIPRFDPWGQGTLVTVSS
VL: B4 VL with W30S, I33L, Y36F, K42R, K55E, H91Y, D93N, P96I, K103R, V104L
B11: mAb10933 (antibody, V domains shown)
VH: QVQLVESGGGLVKPGGSLRLSCAASGFTFSDYYMSWIRQAPGKGLEWVSYITYSGSTIYYADSVKGRFTISRDNAKSSLYLQMNSLRAEDTAVYYCARDRGTTMVPFDYWGQGTLVTVSS
VL: B4 VL with W30T, I33L, D50A, K55E, S77G, H91Y, D93N, P96L, Q100G

The binders below were run against T1, MERS-CoV Spike Protein (ECD, aa 1-1297, …) (assay: Luminex, supernatant).

Binder	MFI [MFI]
B1	19
B2	18
B3	15
B4	15
B5	15

These binders were tested against T2, MERS-CoV Spike Protein S2 (aa 726-1296, …) (assay: Luminex, supernatant).

Binder	MFI [MFI]
B1	19
B2	28
B3	19
B5	18

What follows are binders tested against SARS-CoV-2 Spike Protein (RBD)(R319-F541).mFc (SARS-CoV-2) (assay: Luminex, supernatant).

Binder	MFI [MFI]
B1	19400
B6	18700
B7	31800
B2	29400
B3	28400
B8	23300
B9	28300
B4	34300
B5	35900
B10	30800

These binders were tested against T3, MERS-CoV (NCoV/Novel coronavirus) Spike … (assay: Luminex, supernatant).

Binder	MFI [MFI]
B2	22
B3	20
B4	20

The binders below were run against Human SARS Coronavirus Spike S1 Subunit Protein (His Tag) (Sino 40150-V08B1) (Human SARS Coronavirus, UniProt P59594 14-667) (assay: Luminex, supernatant).

Binder	MFI [MFI]
B1	19
B7	21
B2	22700
B3	21
B8	24
B11	18
B5	21

What follows are binders tested against SARS-CoV-2 Spike Protein (RBD)(R319-F541).hFc (SARS-CoV-2) (assay: Luminex, supernatant).

Binder	MFI [MFI]
B1	22300
B6	22600
B7	32400
B2	31100
B8	23000
B9	30200
B4	35800
B5	35600
B10	31200

Each binder was assayed against T4, MERS-CoV (NCoV/Novel coronavirus) Spike … (assay: Luminex, supernatant).

Binder	MFI [MFI]
B1	23
B2	31
B3	27
B4	24
B5	25
